Assay results from PMC11662940 (Nucleic Acids Research, 2024).

Molecular target: T1, ScUba4 (Saccharomyces cerevisiae Uba4) (S. cerevisiae, UniProt P38820 1-440)
T1 sequence: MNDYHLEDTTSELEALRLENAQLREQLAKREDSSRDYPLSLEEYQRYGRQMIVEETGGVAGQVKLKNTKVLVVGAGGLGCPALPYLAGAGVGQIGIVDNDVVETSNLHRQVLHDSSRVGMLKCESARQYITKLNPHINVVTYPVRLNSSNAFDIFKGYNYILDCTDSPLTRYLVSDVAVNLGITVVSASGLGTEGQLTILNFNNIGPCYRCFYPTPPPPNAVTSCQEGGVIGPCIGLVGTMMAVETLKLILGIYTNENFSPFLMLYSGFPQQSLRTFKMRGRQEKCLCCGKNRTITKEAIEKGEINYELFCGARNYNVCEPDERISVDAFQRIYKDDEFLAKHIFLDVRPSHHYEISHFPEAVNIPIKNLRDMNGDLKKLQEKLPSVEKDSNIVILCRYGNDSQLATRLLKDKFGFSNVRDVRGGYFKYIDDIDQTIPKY
Test: SEC

B1: Thiocarboxylated ScUrm1 (natural protein)
chain: MVNVKVEFLGGLDAIFGKQRVHKIKMDKEDPVTVGDLIDHIVSTMINNPNDVSIFIEDDSIRPGIITLINDTDWELEGEKDYILEDGDIISFTSTLHGG
modifications: thiocarboxylate at the C-terminus
B1: binds.
